Laboratory results as given in patent US20250304697A1 (ONECHAIN IMNUNOTHERAPEUTICS S L, published 2025).
One block for each molecule: values may come before it.

Legend:
[1] = target: mCAR-CD1a (murine CAR-CD1a, scFv derived from the NA1/34.HLK clone) expressed on transduced T cells; assay: FACS of mCD1a-CAR-T cells incubated with rCD1a (25 nM by the legend paragraph 24, 200 nM by Example 11 paragraph 349), detection with anti-HIS-APC; UT cells in the same gate 0,2% [cont.) B]
[2] = target: T1, human recombinant protein extracellular domain of CD1a (rCD1a), produced with a 6xHis tag as a dimer with … (human, UniProt P06126 17-300; P61769 21-119); assay: SPR, Biacore T-200, rCD1a immobilized on CM5 chip, soluble scFv, 1:1 binding fit, 298 K
T1 construct: Used soluble in flow cytometry on CAR-T cells (detected with anti-HIS-APC) and immobilized on CM5 chips in SPR; also called rCD1a-HIS; recombinant protein CD1a; not shown: 6xHis tag

[3] = target: T1, human recombinant protein extracellular …; assay: SPR, ratio of KD against mscFv-CD1a

% of rCD1a positive bound cells [1]: 23.3%
Molecule: human recombinant protein extracellular domain of CD1a (rCD1a), produced with a 6xHis tag as a dimer with b2-microglobulin (hB2M) (from UniProt P06126 17-300; P61769 21-119)

Kd [2]: 50 nM
koff [2]: 0.00121 s⁻¹
kon [2]: 24600 M⁻¹ s⁻¹
B1: mscFv-CD1a: recombinant murine scFv anti-CD1a with a 6xHis tag, from XtenCHO cells (scFv)
scFv: QVQLQQSGAELARPGASVKMSCKASGYAFSTYTMHWVKQRPRQGLEWIGYINPNSASTSYNENFKDKATLTADKSSNTAYMHLSSLTSEDSAVYYCARGFYTMDYWGQGTSVTVSSGGGGSGGGGSGGGGSGGGGSRDIQMTQSPSSLSASLGGKVTITCQASQDINKYIAWYQFKPGKGPRLLIHYTSTLQPAIPSRFSGSGSGREYSFSISNLEPEDIATYYCLHYDNLPWTFGGGTKLEIKRAHHHHHH

fold higher affinity than the murine scFv (mscFv-CD1a) [3]: 2.4 fold
Kd [2]: 21 nM
koff [2]: 0.0012 s⁻¹
kon [2]: 56300 M⁻¹ s⁻¹
B2: h(2)scFv-CD1a: recombinant humanized (H2 version) scFv anti-CD1a with a 6xHis tag, from XtenCHO cells (scFv)
scFv: QVQLQQSGAEVKKPGASVKVSCKASGYAFSTYTMHWVRQAPGQGLEWMGYINPNSASTSYAQKFQGRVTMTADKSTNTAYMELSSLRSEDTAVYYCARGFYTMDYWGQGTLVTVSSGGGGSGGGGSGGGGSGGGGSRDIQMTQSPSSLSASVGDRVTITCQASQDINKYIAWYQFKPGKGPRLLIHYTSTLEPAIPSRFSGSGSGREYTFTISSLQPEDIATYYCLHYDNLPWTFGGGTKVEIKRA
notes: also called hscFv-CD1a; humanized2_scFv-anti-CD1a; not shown: 6xHis tag
